# In publication PMC10767033 (Scientific Reports, 2024):
# B1: wild-type VHH (3DWT) (VHH)
# VHH: QVQLVESGGGSVQAGGSLRLSCTASGGSEYSYSTFSLGWFRQAPGQEREAVAAIASMGGLTYYADSVKGRFTISRDNAKNTVTLQMNNLKPEDTAIYYCAAVRGYFMRLPSSHNFRYWGQGTQVTVSS
# notes: framework 1 of the VHH of PDB 3DWT; CDR1 (13 aa) of the wild type; framework 2 of the VHH of PDB 3DWT; CDR2 (10 aa) of the wild type; framework 3 of the VHH of PDB 3DWT; CDR3 (16 aa) of the wild type; framework 4 of the VHH of PDB 3DWT; also called wild-type 3DWT; source: E. coli BL21(DE3), purified (IMAC, SEC)
# Molecular target: T1, galectin-3 (Homo sapiens (assumed; ), UniProt P17931, biotin (biotinylated galectin-3))
# T1 construct: galectin-3
# T1 sequence (P17931 whole entry): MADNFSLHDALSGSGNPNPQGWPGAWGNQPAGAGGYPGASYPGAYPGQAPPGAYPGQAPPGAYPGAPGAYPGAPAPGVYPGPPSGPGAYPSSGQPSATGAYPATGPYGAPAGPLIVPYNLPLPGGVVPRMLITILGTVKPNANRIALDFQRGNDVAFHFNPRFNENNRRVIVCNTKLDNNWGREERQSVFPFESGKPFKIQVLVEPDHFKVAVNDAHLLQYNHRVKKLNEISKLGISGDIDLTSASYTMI
# Experiment: ELISA; biotinylated galectin-3 (10 µg/mL) captured on NeutrAvidin-coated wells blocked with 3% skim milk; VHH at 800, 400 and 200 nM in solution, 30 min; detected with HRP anti-FLAG antibody; absorbance at 450 nm
# Settings: both partners purified
binder,measurement,value
B1,binding result,"no binding (tested: 800 nM, 400 nM, and 200 nM of VHHs)"
